{"source": "paper PMC4512291", "key": {"e6ap peptide": {"biological_target": "e6ap peptide", "assay": "ITC"}, "[1]": {"biological_target": "E6 F47R 4C4S, a soluble mutant of HPV16 E6 (HPV16)", "assay": "ITC"}}, "data": [{"substance": "E6 F47R 4C4S, a soluble mutant of HPV16 E6 (natural protein)", "values": [{"measurement": "Kd", "setting": "e6ap peptide", "value": "> 10", "unit": "µM"}]}, {"substance": "LxxLL peptide (E6-binding LxxLL motif of E6AP)", "values": [{"measurement": "Kd", "setting": "[1]", "value": 42, "unit": "µM"}]}]}
